Read-outs that look alike come from different tables or passages of the source.
Assays:
[1] = biological target: T1, Acro SARS-CoV-2 (COVID-19) S1 protein (SARS-CoV-2, UniProt P0DTC2 16-685); assay: SPR
T1 construct: also called SARS-CoV-2 S1

[2] = biological target: T2, SARS-COV2-S1 RBD (mouse IgG2Fc tag) (SARS-CoV-2, UniProt P0DTC2 319-537); assay: FACS, blocks S1 RBD-mFc binding to ACE2 on Vero E6
[3] = biological target: T2, SARS-COV2-S1 RBD (mouse IgG2Fc tag); assay: column not explained; likely FACS, S1 RBD on Vero E6
S1-Fc = biological target: T3, S1-Fc (SARS-CoV-2, UniProt P0DTC2 14-685); assay: phage ELISA
T3 construct: also called S1 Fc fusion protein

[4] = biological target: SARS-CoV-2 S1 (subunit 1) protein (SARS-CoV-2, UniProt P0DTC2 16-685); assay: phage ELISA
[5] = biological target: T4, COVID S1 RBM Fc fusion (Antigen 2) (SARS-CoV-2, UniProt P0DTC2 437-508); assay: phage ELISA
T4 construct: domain: S1 RBM

[6] = biological target: T5, COVID S1 RBD Fc fusion (Antigen 1) (SARS-CoV-2, UniProt P0DTC2 319-541); assay: phage ELISA
T5 construct: domain: S1 RBD

[7] = biological target: T2, SARS-COV2-S1 RBD (mouse IgG2Fc tag); assay: FACS, blocks S1 RBD-mFc binding to ACE2 on Vero E6; remark: listed apart in the source
[8] = biological target: SARS-CoV-2 spike on live SARS-CoV-2 virus (SARS-CoV-2, UniProt P0DTC2 14-1273); assay: cell-based or functional assay
[9] = biological target: T2, SARS-COV2-S1 RBD (mouse IgG2Fc tag)
SARS-CoV-2 S1 protein [10] = biological target: T6, SARS-CoV-2 S1 protein (SARS-CoV-2, UniProt P0DTC2 16-685); assay: phage ELISA screen on S1, mean
T6 construct: also called SARS-CoV-2 Spike Glycoprotein S1; S1 (subunit 1)

SARS-CoV-2 S1 protein [11] = biological target: T6, SARS-CoV-2 S1 protein; assay: phage ELISA screen on S1, mean; remark: listed apart in the source

B1: variant 5-1 (Fc fusion)
VHH: EVQLVESGGGLVQPGGSLRLSCAASGGTFSSIGMGWFRQAPGKEREFVAAISWDGGATAYADSVKGRFTISADNSKNTAYLQMNSLKPEDTAVYYCAKEDVGKPFDWGQGTLVTVSS
Kd [1]: 15.1 nM | IC50 [2]: 0.75 nM | MFI Fold Decrease [3]: 10 fold

B2: variant 2-2 (antibody, V domains shown)
VH: EVQLLESGGGLVQPGGSLRLSCAASGFTFSRHAMNWVRQAPGKGLEWVSGISGSGDETYYADSVKGRFTISRDNSKNTLYLQMNSLRAEDTAVYYCARDLPASYYDSSGYYWHNGMDVWGQGTLVTVSS
VL: DIQMTQSPSSLSASVGDRVTITCRASQTINTYLNWYQQKPGKAPKLLIYSASTLQSGVPSRFSGSGSGTDFTLTISSLQPEDFATYYCQQSYSTFTFGQGTKVEIK
specificity ELISA, fold over background (S1-Fc): 4.7 fold over background | specificity ELISA, percent binding relative to Acro S1 (S1-Fc): 12% | screening ELISA (Avg), fold over background [4]: 23.4 fold over background | specificity ELISA, fold over background [5]: 1.1 fold over background | specificity ELISA, percent binding relative to Acro S1 [5]: 2.8% | specificity ELISA, fold over background [6]: 39.6 fold over background | specificity ELISA, percent binding relative to Acro S1 [6]: 100%

B3: variant 2-2 (antibody, V domains shown)
VH: EVQLLESGGGLVQPGGSLRLSCAASGFTFSRHAMNWVRQAPGKGLEWVSGISGSGDETYYADSVKGRFTISRDNSKNTLYLQMNSLRAEDTAVYYCARDLPASYYDSSGYYWHNGMDVWGQGTLVTVSS
VL: DIQMTQSPSSLSASVGDRVTITCRASQTINTYLNWYQQKPGKAPKLLIYSASTLQSGVPSRFSGSGSGTDFTLTISSLQPEDFATYYCQQSYSTFTFGQGTKVEIK
IC50 [7]: 0.56 nM | IC50 [2]: 0.56 nM

B4: variant 5-56 (Fc fusion)
VHH: EVQLVESGGGLVQPGGSLRLSCAASGRTFSSNMGWFRQAPGKEREFVARIFGGDRTLYADSVKGRFTISADNSKNTAYLQMNSLKPEDTAVYYCADINGDWGQGTLVTVSS
Kd [1]: 54.3 nM | EC80 [8]: 105 µg/mL | IC50 [9]: 0.68 nM

B5: variant 5-47 (Fc fusion)
VHH: EVQLVESGGGLVQPGGSLRLSCAASGFTFGSYDMGWFRQAPGKEREFVTAINWSGARTAYADSVKGRFTISADNSKNTAYLQMNSLKPEDTAVYYCAARSVYSYEYNWGQGTLVTVSS
Kd [1]: 27.7 nM | EC80 [8]: 2.46 µg/mL | IC50 [9]: 0.8 nM

B6: variant 2-4 (antibody, V domains shown)
VH: EVQLLESGGGLVQPGGSLRLSCAASGFTFSDFAMAWVRQAPGKGLEWVSAISGSGDITYYADSVKGRFTISRDNSKNTLYLQMNSLRAEDTAVYYCAREADGLHSPWHFDLWGQGTLVTVSS
VL: DIQMTQSPSSLSASVGDRVTITCRASQSIDTYLNWYQQKPGKAPKLLIYAASALASGVPSRFSGSGSGTDFTLTISSLQPEDFATYYCQQSYSAPPYTFGQGTKVEIK
specificity ELISA, fold over background (S1-Fc): 7.2 fold over background | specificity ELISA, percent binding relative to Acro S1 (S1-Fc): 19% | screening ELISA (Avg), fold over background [4]: 15.5 fold over background | specificity ELISA, fold over background [5]: 1.2 fold over background | specificity ELISA, percent binding relative to Acro S1 [5]: 3.1% | specificity ELISA, fold over background [6]: 38.8 fold over background | specificity ELISA, percent binding relative to Acro S1 [6]: 103%

B7: variant 2-8 (antibody, V domains shown)
VH: EVQLLESGGGLVQPGGSLRLSCAASGFTFSDFAMAWVRQAPGKGLEWVSAISGSGDITYYADSVKGRFTISRDNSKNTLYLQMNSLRAEDTAVYYCAREADGLHSPWHFDLWGQGTLVTVSS
VL: DIQMTQSPSSLSASVGDRVTITCRASQSIDTYLNWYQQKPGKAPKLLIYAASALASGVPSRFSGSGSGTDFTLTISSLQPEDFATYYCQQSYSAPPYTFGQGTKVEIK
specificity ELISA, fold over background (S1-Fc): 5.4 fold over background | specificity ELISA, percent binding relative to Acro S1 (S1-Fc): 15% | screening ELISA (Avg), fold over background [4]: 32.4 fold over background | specificity ELISA, fold over background [5]: 1.1 fold over background | specificity ELISA, percent binding relative to Acro S1 [5]: 3.1% | specificity ELISA, fold over background [6]: 36.5 fold over background | specificity ELISA, percent binding relative to Acro S1 [6]: 102%

B8: variant 2-5 (antibody, V domains shown)
VH: EVQLLESGGGLVQPGGSLRLSCAASGFTFSDFAMAWVRQAPGKGLEWVSAISGSGDITYYADSVKGRFTISRDNSKNTLYLQMNSLRAEDTAVYYCAREADGLHSPWHFDLWGQGTLVTVSS
VL: DIQMTQSPSSLSASVGDRVTITCRASQSIHTYLNWYQQKPGKAPKLLIYAASALASGVPSRFSGSGSGTDFTLTISSLQPEDFATYYCQQSYSAPPYTFGQGTKVEIK
IC50 [7]: 2.15 nM | IC50 [2]: 2.15 nM

B9: variant 2-12 (antibody, V domains shown)
VH: EVQLLESGGGLVQPGGSLRLSCAASGFTFSDYPMNWVRQAPGKGLEWVSTISGSGGITFYADSVKGRFTISRDNSKNTLYLQMNSLRAEDTAVYYCVRHDEYSFDYWGQGTLVTVSS
VL: DIQMTQSPSSLSASVGDRVTITCRASQSIDNYLNWYQQKPGKAPKLLIYGVSALQSGVPSRFSGSGSGTDFTLTISSLQPEDFATYYCQQSHSAPPYFFGQGTKVEIK
specificity ELISA, fold over background (S1-Fc): 14.7 fold over background | specificity ELISA, percent binding relative to Acro S1 (S1-Fc): 37% | screening ELISA (Avg), fold over background [4]: 18.2 fold over background | specificity ELISA, fold over background [5]: 1.1 fold over background | specificity ELISA, percent binding relative to Acro S1 [5]: 2.9% | specificity ELISA, fold over background [6]: 40.3 fold over background | specificity ELISA, percent binding relative to Acro S1 [6]: 101%

B10: variant 2-13 (antibody, V domains shown)
VH: EVQLLESGGGLVQPGGSLRLSCAASGFTFSDYPMNWVRQAPGKGLEWVSAISGSGDNTYYADSVKGRFTISRDNSKNTLYLQMNSLRAEDTAVYYCVRHDEYSFDYWGQGTLVTVSS
VL: DIQMTQSPSSLSASVGDRVTITCRASQSIDTYLNWYQQKPGKAPKLLIYGASALESGVPSRFSGSGSGTDFTLTISSLQPEDFATYYCQQSHSAPPYFFGQGTKVEIK
specificity ELISA, fold over background (S1-Fc): 3.7 fold over background | specificity ELISA, percent binding relative to Acro S1 (S1-Fc): 13.4% | screening ELISA (Avg), fold over background [4]: 19.1 fold over background | specificity ELISA, fold over background [5]: 0.9 fold over background | specificity ELISA, percent binding relative to Acro S1 [5]: 3.1% | specificity ELISA, fold over background [6]: 32.1 fold over background | specificity ELISA, percent binding relative to Acro S1 [6]: 118%

B11: variant 2-5 (antibody, V domains shown)
VH: EVQLLESGGGLVQPGGSLRLSCAASGFTFSDFAMAWVRQAPGKGLEWVSAISGSGDITYYADSVKGRFTISRDNSKNTLYLQMNSLRAEDTAVYYCAREADGLHSPWHFDLWGQGTLVTVSS
VL: DIQMTQSPSSLSASVGDRVTITCRASQSIHTYLNWYQQKPGKAPKLLIYAASALASGVPSRFSGSGSGTDFTLTISSLQPEDFATYYCQQSYSAPPYTFGQGTKVEIK
specificity ELISA, fold over background (S1-Fc): 24.3 fold over background | specificity ELISA, percent binding relative to Acro S1 (S1-Fc): 63.3% | screening ELISA (Avg), fold over background [4]: 30.8 fold over background | specificity ELISA, fold over background [5]: 1.1 fold over background | specificity ELISA, percent binding relative to Acro S1 [5]: 3% | specificity ELISA, fold over background [6]: 35.9 fold over background | specificity ELISA, percent binding relative to Acro S1 [6]: 93.7%

B12: variant 5-34 (Fc fusion)
VHH: EVQLVESGGGLVQPGGSLRLSCAASGRTFSRYIMGWFRQAPGKEREFVAAISWSGGDNTYYADSVKGRFTISADNSKNTAYLQMNSLKPEDTAVYYCAAYRIVVGGTSPGDWRWGQGTLVTVSS
IC50 [2]: 1.21 nM | MFI Fold Decrease [3]: 5.69 fold

B13: 2-18 (antibody, V domains shown)
VH: EVQLLESGGGLVQPGGSLRLSCAASGFTFSSYAMYWVRQAPGKGLEWVSAISGSAGSTYYADSVKGRFTISRDNSKNTLYLQMNSLRAEDTAVYYCARDTNDFWSGYSIFDPWGQGTLVTVSS
VL: DIQMTQSPSSLSASVGDRVTITCTGTSSDIGSYNLVSWYQQKPGKAPKLLIYEGTKRPSGVPSRFSGSGSGTDFTLTISSLQPEDFATYYCCSYAGSRTYVFGQGTKVEIK
notes: also called variant 2-18
ELISA(Avg) (SARS-CoV-2 S1 protein [10]): 43 fold over background | ELISA(Avg) (SARS-CoV-2 S1 protein [11]): 43 fold over background

B14: variant 5-67 (Fc fusion)
VHH: EVQLVESGGGLVQPGGSLRLSCAASGFNVNDYAMGWFRQAPGKEREFVAGITSSVGVTNYADSVKGRFTISADNSKNTAYLQMNSLKPEDTAVYYCAADIFFVNWGRGTLVTVSS
Kd [1]: 22.1 nM | EC80 [8]: 1.57 µg/mL | IC50 [9]: 0.76 nM

B15: variant 5-20 (Fc fusion)
VHH: EVQLVESGGGLVQPGGSLRLSCAASGRTIVPYTMGWFRQAPGKERELVAAISPSAFTEYADSVKGRFTISADNSKNTAYLQMNSLKPEDTAVYYCAARRWGYDWGQGTLVTVSS
Kd [1]: 14.3 nM | IC50 [2]: 1.23 nM | MFI Fold Decrease [3]: 12.4 fold

B16: variant 5-37 (Fc fusion)
VHH: EVQLVESGGGLVQPGGSLRLSCAASGSTFSINAMGWFRQAPGKEREFVGGISRSGATTNYADSVKGRFTISADNSKNTAYLQMNSLKPEDTAVYYCAADGVPEYSDYASGPVWGQGTLVTVSS
Kd [1]: 30.2 nM | IC50 [2]: 1.01 nM | MFI Fold Decrease [3]: 8.19 fold
